Data on eight molecules can be found in article PMC5701058, “Structure of Rap1b bound to talin reveals a pathway for triggering integrin activation” (Nature Communications, 2017).

B6: membrane-anchored Rap1b_TM2 (G12V, C51S, C118S, C141S), loaded with GMP-PNP (natural protein, human, UniProt P61224 1-184, looked up)
chain: MREYKLVVLGSVGVGKSALTVQFVQGIFVEKYDPTIEDSYRKQVEVDAQQSMLEILDTAGTEQFTAMRDLYMKNGQGFALVYSITAQSTFNDLQDLREQILRVKDTDDVPMILVGNKSDLEDERVVGKEQGQNLARQWNNSAFLESSAKSKINVNEIFYDLVRQINRKTPVPGKARKKSSCQLL
modifications: thiol group of Cys 180 joined to the maleimide group of the lipid PE MCC in vesicles
notes: Rap1b, human, with G12V, C51S, C118S, C141S; holds the C-terminal Cys 180 (so in the source); LUVs: 96% POPC, 1% PIP2, 3% PE MCC; MLVs: 87% POPC, 10% PIP2, 3% PE MCC; also called LUV-Rap1b; LUV-Rap1b (GMP-PNP); source: E. coli BL21 (DE3), purified, then tethered to vesicles (LUVs or MLVs) by thiol-maleimide crosslinking
B7: mouse talin-H (1–429) (domain or fragment, UniProt P26039 1-429, looked up)
chain: MVALSLKISIGNVVKTMQFEPSTMVYDACRMIRERIPEALAGPPNDFGLFLSDDDPKKGIWLEAGKALDYYMLRNGDTMEYRKKQRPLKIRMLDGTVKTIMVDDSKTVTDMLMTICARIGITNHDEYSLVRELMEEKKDEGTGTLRKDKTLLRDEKKMEKLKQKLHTDDELNWLDHGRTLREQGVEEHETLLLRRKFFYSDQNVDSRDPVQLNLLYVQARDDILNGSHPVSFDKACEFAGFQCQIQFGPHNEQKHKAGFLDLKDFLPKEYVKQKGERKIFQAHKNCGQMSEIEAKVRYVKLARSLKTYGVSFFLVKEKMKGKNKLVPRLLGITKECVMRVDEKTKEVIQEWSLTNIKRWAASPKSFTLDFGDYQDGYYSVQTTEGEQIAQLIAGYIDIILKKKKSKDHFGLEGDEESTMLEDSVSPKKS
notes: talin (talin-1), mouse, head domain, residues 1-429; Talin-H was cloned into pET28t and into pGST-1; also called talin head domain

The target of assay [1] is membrane-anchored Rap1b_TM2 (G12V, C51S, C118S, C141S), loaded with GMP-PNP (human) (UniProt P61224). As to the kind of experiment: co-sedimentation; vesicle co-sedimentation: 10 μM talin-H or full-length talin with 10 μM MLV-Rap1b, MLV only or MLV + Rap1b; RT 15 min, 22,000 r.p.m. 35 min; pellet on SDS-PAGE, band normalized to MLV only.
Assay [2] concerns the target T1, Rap1b (G12V), loaded with GMP-PNP (active form) (human, UniProt P61224 1-184, G12V).
T1 construct: Rap1b, human, with G12V; Loaded with the GTP analog GMP-PNP; Made by mutagenesis; Probably full length; also called active Rap1b; GMP-PNP loaded Rap1b
T1 sequence (looked up): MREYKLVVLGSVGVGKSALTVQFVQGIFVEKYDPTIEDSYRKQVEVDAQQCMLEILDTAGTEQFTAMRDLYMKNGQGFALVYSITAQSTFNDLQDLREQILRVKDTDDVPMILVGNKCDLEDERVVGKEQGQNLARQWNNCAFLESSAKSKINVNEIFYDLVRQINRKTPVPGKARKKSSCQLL
The assay can be described thus: NMR titration; HSQC titration of 45 μM 15N-labeled talin-F0 with increasing GMP-PNP-loaded Rap1b (G12V); average Kd of four residues. The following applies: both partners purified.

Assay [3] has as its target T2, GFP-Rap1b (G12V), loaded with GMP-PNP (human, UniProt P61224 1-184, G12V). The assay can be described thus: MST; GMP-PNP loaded.
For assay [4], the target named is B7. As to the kind of experiment: NMR titration; 2D HSQC of 45 μM GMP-PNP loaded 15N-labeled Rap1b (1–167) without and with 90 or 225 μM talin-F0, 90 μM talin-H or 45 μM full-length talin; 25 °C; 25 mM NaH2PO4/Na2HPO4 pH 6.8, 150 mM NaCl, 5 mM MgCl2, 2 mM DTT. Particulars: both partners purified.
The target in assay [5] is T3, mouse full-length talin (mouse, UniProt P26039 1-2541).
T3 construct: talin (talin-1), mouse, full length, in pET28t
The assay is described as above. Particulars: both partners purified.

Assay [6] concerns the target T4, mouse RIAM-RAPH (149–438) (mouse, UniProt Q8R5A3 149-438).
T4 construct: RIAM, mouse, RA-PH domains, residues 149-438
T4 sequence (looked up): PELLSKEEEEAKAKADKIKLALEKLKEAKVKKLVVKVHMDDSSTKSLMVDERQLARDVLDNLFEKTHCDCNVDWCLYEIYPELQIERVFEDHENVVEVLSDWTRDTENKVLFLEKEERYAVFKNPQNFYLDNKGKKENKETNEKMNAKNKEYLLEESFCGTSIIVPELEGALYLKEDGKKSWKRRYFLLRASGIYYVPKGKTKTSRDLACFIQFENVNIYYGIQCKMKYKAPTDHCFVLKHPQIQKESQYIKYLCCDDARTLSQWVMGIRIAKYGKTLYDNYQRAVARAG
As to the kind of experiment: MST; 100 nM GFP-Rap1b (G12V) with serial dilutions of the partner; 50 mM Tris-HCl pH 7.5, 100 mM NaCl, 5 mM MgCl2, 2 mM DTT, 0.05% Tween 20; RT. The following applies: both partners purified.

The target in assay [7] is B7. As to the kind of experiment: pull-down; GST pull-down of Fig. 3b, Rap1b with GDP or GTP analog; ~25 μg GST-fused protein on glutathione-Sepharose 4B, 4 °C, 25 mM Tris-HCl pH 7.5, 150 mM NaCl, 5 mM MgCl2, 1 mM DTT, 0.01% NP-40. Particulars: both partners purified.
Assay [8] addresses T3, mouse full-length talin. Described as above. The following applies: both partners purified.
In assay [9] the target is B7. As to the kind of experiment: ITC; 200 μM talin-H in the syringe into 15 μM LUV-Rap1b (GMP-PNP) in the cell; 25 °C; 25 mM NaH2PO4/Na2HPO4 pH 6.8, 100 mM NaCl, 5 mM MgCl2; single-site model. Particulars: both partners purified. Background: Isothermal titration calorimetry measures the heat released or taken up as one component is titrated into another.
Assay [10] deals with B6. As to the kind of experiment: co-sedimentation; vesicle co-sedimentation: 10 μM talin-H or full-length talin with 10 μM MLV-Rap1b, MLV only or MLV + Rap1b; RT 15 min, 22,000 r.p.m. 35 min; pellet on SDS-PAGE, band normalized to MLV only. The following applies: both partners purified.
Assay [11] deals with membrane-anchored Rap1b_TM2 (G12V, C51S, C118S, C141S), loaded with GMP-PNP (human, UniProt P61224 1-184, G12V | C51S | C118S | C141S, thiol group of Cys 180 joined to the maleimide group of the lipid PE MCC in vesicles). The assay can be described thus: ITC; LUV-anchored Rap1b, GMP-PNP; 2nd experiment.
For assay [12], the target named is T2, GFP-Rap1b (G12V), loaded with GMP-PNP. As to the kind of experiment: MST; GMP-PNP loaded; estimated, saturation not reached.

As for mouse full-length talin, P26039 1-2541, the fold co-sedimentation with vesicles, Rap1b anchored against MLV only in assay [1] amounted to 3 fold.

B1: mouse talin-F0 (1–86) (domain or fragment, UniProt P26039 1-86, looked up)
chain: MVALSLKISIGNVVKTMQFEPSTMVYDACRMIRERIPEALAGPPNDFGLFLSDDDPKKGIWLEAGKALDYYMLRNGDTMEYRKKQR
notes: talin (talin-1), mouse, F0 domain, residues 1-86; Isotope labelled or unlabelled as the NMR sample needed; also called F0 domain of talin
As to B1, the values for the Kd in assay [2] and in [3] were about 162 µM and 237 µM, respectively.

B2: C-terminal truncated Rap1b (1–167, G12V), loaded with GMP-PNP (domain or fragment, human, UniProt P61224 1-167, looked up)
chain: MREYKLVVLGSVGVGKSALTVQFVQGIFVEKYDPTIEDSYRKQVEVDAQQCMLEILDTAGTEQFTAMRDLYMKNGQGFALVYSITAQSTFNDLQDLREQILRVKDTDDVPMILVGNKCDLEDERVVGKEQGQNLARQWNNCAFLESSAKSKINVNEIFYDLVRQINR
notes: Rap1b, human, residues 1-167, G12V, in pET28t; Loaded with GMP-PNP; isotope labelled or unlabelled as the NMR sample needed; The removal of the tag is told for the assignment samples; not shown: His6, N-terminal, cleaved
Consider B2, for which the binding result in assay [4] and in assay [5] was “binds” throughout.

B3: mouse RIAM-RAPH (149–438) (domain or fragment)
chain: PELLSKEEEEAKAKADKIKLALEKLKEAKVKKLVVKVHMDDSSTKSLMVDERQLARDVLDNLFEKTHCDCNVDWCLYEIYPELQIERVFEDHENVVEVLSDWTRDTENKVLFLEKEERYAVFKNPQNFYLDNKGKKENKETNEKMNAKNKEYLLEESFCGTSIIVPELEGALYLKEDGKKSWKRRYFLLRASGIYYVPKGKTKTSRDLACFIQFENVNIYYGIQCKMKYKAPTDHCFVLKHPQIQKESQYIKYLCCDDARTLSQWVMGIRIAKYGKTLYDNYQRAVARAG
Molecule B3 gave a Kd in assay [3] of 5.3 µM.

B4: GFP-Rap1b (G12V), loaded with GMP-PNP (natural protein, human, UniProt P61224 1-184, looked up)
chain: MREYKLVVLGSVGVGKSALTVQFVQGIFVEKYDPTIEDSYRKQVEVDAQQCMLEILDTAGTEQFTAMRDLYMKNGQGFALVYSITAQSTFNDLQDLREQILRVKDTDDVPMILVGNKCDLEDERVVGKEQGQNLARQWNNCAFLESSAKSKINVNEIFYDLVRQINRKTPVPGKARKKSSCQLL
notes: Rap1b (G12V) in a pRSET vector; The name puts GFP first, the methods call it a C-terminal GFP fusion tag; also called GMP-PNP-loaded GFP-Rap1b (G12V); not shown: GFP, C-terminal, kept
As for B4, in assay [6], the binding result was “binds”.

B5: Rap1b (G12V), GMP-PNP loaded, of the GST pull-down of Fig. 3b (natural protein, human, UniProt P61224 1-184, looked up)
chain: MREYKLVVLGSVGVGKSALTVQFVQGIFVEKYDPTIEDSYRKQVEVDAQQCMLEILDTAGTEQFTAMRDLYMKNGQGFALVYSITAQSTFNDLQDLREQILRVKDTDDVPMILVGNKCDLEDERVVGKEQGQNLARQWNNCAFLESSAKSKINVNEIFYDLVRQINRKTPVPGKARKKSSCQLL
notes: human full-length Rap1b in a pGST-1 vector, with G12V as the active form; also called active Rap1b
As to B5, the binding result in assay [7] and in assay [8] was “binds” throughout.

As to B6, in assay [9], the Kd was about 1.52 µM.

For the molecule B7, the “fold co-sedimentation with vesicles, Rap1b anchored against MLV only” value in assay [10] is about 1.5 fold. Moreover, the Kd in assay [11] is 3.64 µM; in [12], about 147 µM.

As usually defined, the Kd is the constant that tells how readily two partners part at equilibrium.
